Results: patent US20070053894

Test system: Soluble human recombinant p97 (melanotransferrin)
Sequence (chain, as listed by the source): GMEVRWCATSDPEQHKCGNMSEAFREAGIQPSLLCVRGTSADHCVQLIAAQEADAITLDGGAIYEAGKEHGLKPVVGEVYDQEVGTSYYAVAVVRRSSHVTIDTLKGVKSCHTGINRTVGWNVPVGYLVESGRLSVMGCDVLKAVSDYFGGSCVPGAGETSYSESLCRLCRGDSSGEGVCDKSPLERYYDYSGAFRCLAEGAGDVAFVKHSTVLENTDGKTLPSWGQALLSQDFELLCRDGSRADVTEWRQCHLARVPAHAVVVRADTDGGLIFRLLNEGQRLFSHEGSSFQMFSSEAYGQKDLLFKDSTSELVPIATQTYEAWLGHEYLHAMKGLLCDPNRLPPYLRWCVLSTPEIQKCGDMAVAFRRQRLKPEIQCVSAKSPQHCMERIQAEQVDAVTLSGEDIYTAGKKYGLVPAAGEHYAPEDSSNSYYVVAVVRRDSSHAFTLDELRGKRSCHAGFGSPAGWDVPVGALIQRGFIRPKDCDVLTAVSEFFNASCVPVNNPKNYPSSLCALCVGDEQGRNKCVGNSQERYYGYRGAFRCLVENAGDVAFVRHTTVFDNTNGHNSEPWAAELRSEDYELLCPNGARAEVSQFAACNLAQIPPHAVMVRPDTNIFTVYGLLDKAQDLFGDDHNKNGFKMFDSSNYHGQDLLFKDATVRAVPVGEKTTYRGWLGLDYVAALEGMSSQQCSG

Substance: pro-urokinase plasminogen activator (pro-uPA)
- VLK-pNA hydrolysis (plasminogen activation by pro-uPA) with 70 nM p97 and 30 nM plasminogen, after 180 min: the VLK-pNA hydrolysis is 4-fold higher after 180 min
- VLK-pNA hydrolysis by 90 nM pro-uPA with 70 nM p97, without plasminogen: goes from less than 50 AU/min in the absence of p97 to more than 450 AU/min when p97 is added
- half-maximal stimulation of plasminogen cleavage by pro-uPA (initial rates of plasmin activity): half-maximal stimulation occurring at 25±6 nM
- increase of catalytic efficiency of plasminogen activation by pro-uPA with 250 nM p97: increasing the catalytic efficiency by a factor of 2.4-fold
